Assay results as given in patent US20230203097A1.
Where no end group is shown, it is not given here.

What was measured:
[1] = target: recombinant MAVS protein; experiment: fluorescence-labeled peptide titrated on plate-coated recombinant MAVS (250 ng per well), fluorescence read-out
[2] = target: recombinant MAVS protein; experiment: fluorescence-labeled peptide titrated on plate-coated recombinant MAVS; ratio of the Kd of MQP-37 to that of MQP-37A6

Chain of recombinant MAVS protein (Q7Z434 2-540): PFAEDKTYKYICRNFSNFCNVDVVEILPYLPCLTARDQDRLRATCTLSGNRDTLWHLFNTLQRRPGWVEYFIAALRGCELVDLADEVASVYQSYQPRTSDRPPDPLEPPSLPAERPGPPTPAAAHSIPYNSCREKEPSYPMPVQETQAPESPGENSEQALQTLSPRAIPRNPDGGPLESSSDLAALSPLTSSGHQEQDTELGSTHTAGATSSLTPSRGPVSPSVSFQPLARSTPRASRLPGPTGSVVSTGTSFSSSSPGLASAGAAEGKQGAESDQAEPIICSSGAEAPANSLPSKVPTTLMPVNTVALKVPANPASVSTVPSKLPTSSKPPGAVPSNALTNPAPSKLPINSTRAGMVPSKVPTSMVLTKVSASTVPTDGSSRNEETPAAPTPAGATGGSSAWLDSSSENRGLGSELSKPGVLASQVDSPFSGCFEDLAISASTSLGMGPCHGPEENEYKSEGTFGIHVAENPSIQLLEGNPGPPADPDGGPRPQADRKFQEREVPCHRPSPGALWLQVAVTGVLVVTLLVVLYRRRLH

| Binder | Kd [1] | fold binding affinity against MQP-37 [2] |
| --- | --- | --- |
| SLVLAAARW (also: fluorescence-labeled, label and position not given here) [fluorescence-labeled novel alanine-substituted peptide MQP-37A6] | 0.75 mM | 20 times |
| SLVLADARW (also: fluorescence-labeled, label and position not given here) [fluorescence-labeled peptide MQP-37] | 16 mM |  |
